# Data taken from PMC4244113.
# Like-named read-outs stand apart in the source and are kept apart here.
# B1: Arabidopsis thaliana eIFiso4E (natural protein)
# chain: MATDDVNEPLPAAAELPATEAEKQPHKLERKWSFWFDNQSKKGAAWGASLRKAYTFDTVEDFWGLHETIFQTSKLTANAEIHLFKAGVEPKWEDPECANGGKWTWVVTANRKEALDKGWLETLMALIGEQFDEADEICGVVASVRPQSKQDKLSLWTRTKSNEAVLMGIGKKWKEILDVTDKITFNNHDDSRRSRFTV
# Legend:
# Assay in all cases: SPR
# [1] = molecular target: Turnip mosaic virus (TuMV) viral protein-genome linked (VPg), His-tagged (turnip mosaic virus)
# [2] = molecular target: Turnip mosaic virus (TuMV) viral protein-genome linked (VPg), His-tagged (turnip mosaic virus); remark: listed apart in the source
# [3] = molecular target: Turnip mosaic virus (TuMV) viral protein-genome linked (VPg), His-tagged (turnip mosaic virus); remark: listed apart in the source
# Turnip mosaic virus (TuMV) viral protein-genome linked (VPg), His-tagged (turnip mosaic virus), sequence (P89509 1925-2116 limits assumed): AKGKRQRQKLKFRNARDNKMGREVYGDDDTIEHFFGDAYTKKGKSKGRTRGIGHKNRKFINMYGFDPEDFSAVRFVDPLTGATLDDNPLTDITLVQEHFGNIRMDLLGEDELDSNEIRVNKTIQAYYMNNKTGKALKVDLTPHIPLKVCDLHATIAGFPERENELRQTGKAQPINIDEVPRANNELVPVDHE
Molecule,Kd [1],koff [1],kon [1],Kd [2],koff [2],kon [2],Kd [3],koff [3],kon [3]
N-terminal 33 residues-deleted human eIF4E (from UniProt P06730 34-217) (domain or fragment),3290 nM,0.00447 s⁻¹,1360 M⁻¹ s⁻¹,,,,,,
B1,,,,1410 nM,0.00459 s⁻¹,3250 M⁻¹ s⁻¹,208 nM,0.00432 s⁻¹,20800 M⁻¹ s⁻¹
